According to the RNAGym collection of RNA variant scans (doi:10.7554/elife.80360):

B1: Hairpin Ribozyme (parent)
chain: GUCCUCUUUCACGUGCGCGUGAAAGAGAGAAGUGAACCAGAGAAACACACGUUGUGGUAUAUUACCUGGUA

Variants of: B1
Assay: self-cleavage, relative activity (ratio to wild type); higher = more cleavage; co-transcriptional

| Variant | self-cleavage |
| --- | --- |
| A26U A43U | 0.139 |
| A26U A43G | 0.121 |
| G25A G40A | 0.191 |
| G25A G40C | 0.145 |
| A26C U55G | 0.297 |
| A26C G69A | 0.327 |
| A26C U62A | 0.269 |
| A26C U62C | 0.213 |
| A26C U63C | 0.177 |
| G27C C38U | 0.131 |
| G27C C38G | 0.0571 |
| G25A C66A | 0.15 |
| A26C C50A | 0.117 |
| G25A U70G | 0.509 |
| A26U G29C | 0.135 |
| A26U G29U | 0.151 |
| A26G A41C | 1.25 |
| G25A A39C | 0.374 |
| G25C G68U | 0.206 |
| G25C G68C | 0.187 |
| G27A U55A | 0.169 |
| A26G A44C | 0.0629 |
| A26G A44G | 0.241 |
| A26G G54U | 0.349 |

| Variant | self-cleavage |
| --- | --- |
| G27C C66A | 0.157 |
| G25U G57C | 0.163 |
| G27A U58G | 0.151 |
| A26U G40A | 0.175 |
| A26U G40U | 0.131 |
| A26U G56C | 0.135 |
| G27A C66G | 0.133 |
| A26U C37U | 0.466 |
| G25C G40C | 0.102 |
| G25C G40U | 0.12 |
| A26U A41U | 0.989 |
| A26U A41G | 0.841 |
| A26U U70C | 0.721 |
| A26C A39G | 0.222 |
| G27A G29A | 0.189 |
| G27A A71C | 0.95 |
| A26U G57U | 0.143 |
| G25U G54U | 0.399 |
| A26U U52A | 0.788 |
| G25A A71C | 1.1 |
| A26C A49U | 0.239 |
| A26C A49G | 0.461 |
| G27A A35C | 0.485 |
| A26C C66A | 0.34 |

| Variant | self-cleavage |
| --- | --- |
| A26C C66G | 0.12 |
| G25U U52G | 0.696 |
| G25U U52C | 0.626 |
| A24U U63C | 0.233 |
| G27A C46U | 0.127 |
| G25A U63A | 0.108 |
| G25A U63C | 0.17 |
| G25C U63C | 0.204 |
| G25C U63G | 0.189 |
| G25C U63A | 0.0846 |
| A26C U33G | 0.0995 |
| G27A G34A | 0.551 |
| A26C G34U | 1.03 |
| G25C U52C | 0.657 |
| G27C | 0.172 |
| G27A | 0.454 |
| A26U U53A | 0.474 |
| G25C A71G | 0.687 |
| G27A A45C | 0.186 |
| G27A A45G | 0.196 |
| A26U A64G | 0.399 |
| A26G G40U | 0.128 |
| A26C U60G | 0.365 |
| A26C U60C | 0.602 |

| Variant | self-cleavage |
| --- | --- |
| G25A A43G | 0.133 |
| G27C A35C | 0.143 |
| G27C A35G | 0.181 |
| A26G U70C | 0.89 |
| G27C A49U | 0.129 |
| G25U A71U | 0.575 |
| G25U A71C | 1.08 |
| G25U C48G | 0.129 |
| G25U C50G | 0.25 |
| G25U C50U | 0.287 |
| G25A U53G | 0.524 |
| G27A C48G | 0.151 |
| G25A A26U | 0.175 |
| G25C A47G | 0.071 |
| A26G G27U | 0.121 |
| A26G G27A | 0.275 |
| A26C G57A | 0.141 |
| G25A C48U | 0.135 |
| G25A C48A | 0.176 |
| A26U G54U | 0.34 |
| G27C A30C | 0.0463 |
| A26G A64G | 0.55 |
| A26G A64U | 0.271 |
| A26G A64C | 0.303 |

| Variant | self-cleavage |
| --- | --- |
| G27A C50G | 0.131 |
| A26U G34A | 0.954 |
| A26U G34C | 1.51 |
| G27A A43G | 0.0988 |
| G25A U33G | 0.136 |
| G25U A39U | 0.242 |
| A26C A35C | 0.726 |
| G27A G56C | 0.101 |
| G27A G56U | 0.156 |
| A26C A41U | 0.74 |
| A26C A41G | 0.633 |
| G25U A28U | 0.509 |
| A24U U67C | 0.207 |
| A24U U67G | 0.231 |
| G25U G29U | 0.126 |
| A26U A61U | 0.15 |
| G27A G57U | 0.157 |
| A26G C38G | 0.138 |
| A26G C38U | 0.297 |
| G25C G57A | 0.176 |
| G25C U70G | 0.402 |
| A26U C48A | 0.153 |
| G27C A36U | 0.128 |
| G27C A36G | 0.14 |

| Variant | self-cleavage |
| --- | --- |
| G27C A36C | 0.113 |
| G25A G68C | 0.22 |
| G25A U52A | 0.643 |
| G25A U52G | 0.61 |
| G25U G51C | 0.589 |
| G27A G40A | 0.143 |
| A26G C50A | 0.262 |
| G27A U33G | 0.0835 |
| G27A U33C | 0.0597 |
| G25C G27U | 0.164 |
| G27A U60A | 0.334 |
| G27A U60G | 0.213 |
| G25C G69C | 0.187 |
| G25C G69U | 0.199 |
| G25A U58A | 0.376 |
| G25A U58G | 0.496 |
| G27C A43C | 0.107 |
| G27C A43G | 0.107 |
| A26G G69A | 0.451 |
| G27A C65G | 0.161 |
| G25A A59G | 0.138 |
| G25A C65U | 0.215 |
| G25A G27U | 0.177 |
| G25U U63G | 0.174 |

| Variant | self-cleavage |
| --- | --- |
| G25U U63C | 0.184 |
| G25A G32U | 0.144 |
| G27A U62G | 0.221 |
| G27A U62C | 0.13 |
| A26G A28G | 1.12 |
| G27C C37A | 0.121 |
| G25A A30C | 0.087 |
| A26C G40A | 0.295 |
| G27A A31C | 0.193 |
| G27A A61G | 0.114 |
| G27C C50G | 0.114 |
| G27C C50U | 0.0886 |
| G27A A64G | 0.303 |
| A26C A59G | 0.0796 |
| G25C G29A | 0.13 |
| A26U U67A | 0.196 |
| A26G G32A | 0.103 |
| A26C G27A | 0.139 |
| G25A G51A | 0.586 |
| A26G C66A | 0.171 |
| A26G C66U | 0.429 |
| G25C G51C | 0.435 |
| G25U A59C | 0.195 |
